Experimental data: patent US20190038721A1 (Novo Nordisk, published 2019)
Starred links: 1 amine or outer side, 2 acyl side, 3 side chain; linkers in the order of their positions; H or OH if unused. Non-standard residues stand in square brackets, D forms with d. Groups on a side chain read outwards from the residue. No end group written: not given here. *: point of attachment. 2‑(bis(3-aminopropyl)amino)acetyl = branch point, each 3-aminopropyl arm carries one of the two bracketed chains; 4‑(aminomethyl)cyclohexanecarbonyl = 4-(aminomethyl)cyclohexanecarbonyl linker unit; Undecanoyl(11-OPh(4-COOH)) = O=C(O)c1ccc(OCCCCCCCCCCC(=O)*)cc1; Decanoyl(10-(4-HOOC-PhO)) = O=C(O)c1ccc(OCCCCCCCCCC(=O)*)cc1; Decanoyl(10-O(3-COOH-Ph)) = O=C(O)c1cccc(OCCCCCCCCCC(=O)*)c1; C20 diacid = O=C(O)CCCCCCCCCCCCCCCCCCC(=O)*; γGlu = O=C(O)[C@H](CCC(=O)[*:2])N[*:1]; C14 diacid = O=C(O)CCCCCCCCCCCCC(=O)*; Palmitoyl = CCCCCCCCCCCCCCCC(=O)*; AEEA = NCCOCCOCC(=O)O; Aib = CC(C)(N)C(=O)O

Key:
[1] = target: T1, human GLP-1 receptor (human, UniProt P43220 24-463); experiment: cell-based or functional assay
[2] = target: T1, human GLP-1 receptor; experiment: competitive binding (SPA), displacement of 125I-GLP-1(7-36)NH2 from membranes with human GLP-1 receptor, high HSA (2.0% w/v)
Method: (§1) 1. For the receptor binding assay in the presence of low HSA (0.005% (w/v)) 50 μl of the assay buffer was added to each well of an assay plate. Assay continued with step 3. 2. For the receptor binding assay in the presence of high HSA (2% (w/v)) 50 μl of the 8% (w/v) albumin stock was added to each well of an assay plate. Assay continued with step 3. 3. […] 4. Cell membrane aliquots were thawed and diluted to their working concentration. Fifty μl were added to each well in the assay plate. 5. WGA SPA beads were suspended in assay buffer at 20 mg/ml. The suspension was diluted to 10 mg/ml in assay buffer just prior to addition to the assay plate. Fifty μl were added to each well in the assay plate. 6. […] A 25 μl aliquot was reserved for measuring total counts/well. 7. The assay plate was incubated for 2 h at 30° C. 8. The assay plate was centrifuged for 10 min. 9. The assay plate was read in a Packard TopCount NXT instrument.
(§2) Individual replicates were analysed using non-linear regression in GraphPad Prism.

[3] = target: T1, human GLP-1 receptor; experiment: competitive binding (SPA), displacement of 125I-GLP-1(7-36)NH2 from membranes with human GLP-1 receptor, low HSA
Method: as §1, §2

B1: N{Alpha}([Trp8,Glu22,Arg26,Arg34]-GLP-1-(7-37)-peptidyl)-N{Epsilon}[2-[2-[2-[[2-[2-[2-[[(4S)-4-carboxy-4-[[4-[(19-carboxynonadecanoylamino)methyl]cyclohexanecar … (peptide)
peptide: HWEGTFTSDVSSYLEEQAAREFIAWLVRGRGK([AEEA-AEEA-γGlu-4‑(aminomethyl)cyclohexanecarbonyl-C20 diacid])GGSK([AEEA-AEEA-γGlu-4‑(aminomethyl)cyclohexanecarbonyl-C20 diacid])
EC50 (pM), in vitro potency, CRE luciferase reporter gene assay in BHK cells [1]: 70.5 pM | IC50 [2]: 305 nM

B2: Comparative Example 3A (Example 31 of WO 2012/140117) (peptide)
chain: H[Aib]EGTFTSDVSSYLEEQAARKFIEWLVRGKGEG
modifications: not fully specified (residues 21, 30); also: Lys21 and Lys30 acylated as, structure not given here
IC50 [3]: 0.26 nM | EC50 (pM), in vitro potency, CRE luciferase reporter gene assay in BHK cells [1]: 0.53 pM | IC50 [2]: 134 nM

B3: Comparative Example 9A (Example 3 of WO 2015/000942) (peptide)
chain: H[Aib]EGTFTSDVSSYLEEQAAREFIAWLVRGRGKGGSK
modifications: also: the two extension Lys residues acylated as in the compound
IC50 [3]: 1.04 nM | EC50 (pM), in vitro potency, CRE luciferase reporter gene assay in BHK cells [1]: 41.3 pM | IC50 [2]: 235 nM

B4: Comparative Example 11A (Example 10 of WO 2016/083499) (peptide)
chain: H[Aib]EGTFTSDVSSYLEEQAAREFIAWLVRGRPK
modifications: also: Lys32 acylated as, structure not given here
IC50 [3]: 0.401 nM | EC50 (pM), in vitro potency, CRE luciferase reporter gene assay in BHK cells [1]: 12.5 pM | IC50 [2]: 34.4 nM

B5: N{Epsilon-27}-[2-[2-[2-[[2-[2-[2-[[(4S)-4-carboxy-4-[10-(4-carboxyphenoxy)decanoylamino]butanoyl]amino]ethoxy]ethoxy]acetyl]amino]ethoxy]ethoxy]acetyl],N{Epsilo … (peptide)
peptide: HWEGTFTSDVSSYLEEQAARK([AEEA-AEEA-γGlu-Decanoyl(10-(4-HOOC-PhO))])FIEWLVRGK([AEEA-AEEA-γGlu-Decanoyl(10-(4-HOOC-PhO))])GEG
IC50 [3]: 1.03 nM | EC50 (pM), in vitro potency, CRE luciferase reporter gene assay in BHK cells [1]: 2.7 pM | IC50 [2]: 84.9 nM

B6: N{Epsilon-26}-[2-[2-[2-[[2-[2-[2-[[(4S)-4-carboxy-4-[10-(4-carboxyphenoxy)decanoylamino]butanoyl]amino]ethoxy]ethoxy]acetyl]amino]ethoxy]ethoxy]acetyl],N{Epsilo … (peptide)
peptide: HWEGTFTSDVSSYLEGQAAK([AEEA-AEEA-γGlu-Decanoyl(10-(4-HOOC-PhO))])EFIAWLVRGRK([AEEA-AEEA-γGlu-Decanoyl(10-(4-HOOC-PhO))])
IC50 [3]: 6.23 nM | EC50 (pM), in vitro potency, CRE luciferase reporter gene assay in BHK cells [1]: 30 pM | IC50 [2]: 771 nM

B7: [Gly8]-GLP-1-(7-37)-peptide (peptide)
peptide: HGEGTFTSDVSSYLEGQAAKEFIAWLVKGRG
IC50 [3]: 2.64 nM | EC50 (pM), in vitro potency, CRE luciferase reporter gene assay in BHK cells [1]: 32 pM | IC50 [2]: 0.62 nM

B8: N{Epsilon-36}-[2-[2-[2-[[2-[2-[2-[[2-[2-[2-[[2-[2-[2-[[(4S)-4-carboxy-4-(13-carboxytridecanoylamino)butanoyl]amino]ethoxy]ethoxy]acetyl]amino]ethoxy]ethoxy]acet … (peptide)
peptide: HWEGTFTSDVSSYLEEQAAREFIAWLVRGK([AEEA-AEEA-AEEA-AEEA-γGlu-C14 diacid])K([AEEA-AEEA-AEEA-AEEA-γGlu-C14 diacid])
IC50 [3]: 0.55 nM

B9: [Trp8]-GLP-1-(7-37)-peptide (peptide)
peptide: HWEGTFTSDVSSYLEGQAAKEFIAWLVKGRG
notes: also called 8W GLP-1(7-37)
IC50 [3]: 0.67 nM | EC50 (pM), in vitro potency, CRE luciferase reporter gene assay in BHK cells [1]: 12 pM | IC50 [2]: 0.208 nM

B10: [Pro8,Glu22,Arg26]-GLP-1-(7-37)-peptide (peptide)
peptide: HPEGTFTSDVSSYLEEQAAREFIAWLVKGRG
IC50 [3]: 0.075 nM | EC50 (pM), in vitro potency, CRE luciferase reporter gene assay in BHK cells [1]: 0.57 pM | IC50 [2]: 0.035 nM

B11: N{Epsilon-37}-[2-[2-[2-[[2-[2-[2-[[2-[bis[3-[[2-[2-[2-[[2-[2-[2-[[2-[2-[2-[[2-[2-[2-[[(4 … (peptide)
peptide: HWEGTFTSDVSSYLEEQAAREFIAWLVRGRK([AEEA-AEEA-2‑(bis(3-aminopropyl)amino)acetyl-AEEA-AEEA-AEEA-AEEA-γGlu-4‑(aminomethyl)cyclohexanecarbonyl-C20 diacid)+(AEEA-AEEA-AEEA-AEEA-γGlu-4‑(aminomethyl)cyclohexanecarbonyl-C20 diacid])
notes: also called 13
EC50 (pM), in vitro potency, CRE luciferase reporter gene assay in BHK cells [1]: 32.1 pM | IC50 [2]: 71.6 nM

B12: N{Epsilon-37}-[2-[2-[2-[[2-[2-[2-[[(2)-2,6-bis[[2-[2-[2-[[2-[2-[2-[[2-[2-[2-[[2-[2-[2-[[(4S)-4-carboxy-4-[[4-[(19-carboxynonadecanoylamino)methyl]cyclohexanecar … (peptide)
peptide: HWEGTFTSDVSSYLEEQAAREFIAWLVRGRK([AEEA-AEEA-2,6‑diaminohexanoyl-AEEA-AEEA-AEEA-AEEA-γGlu-4‑(aminomethyl)cyclohexanecarbonyl-C20 diacid)+(AEEA-AEEA-AEEA-AEEA-γGlu-4‑(aminomethyl)cyclohexanecarbonyl-C20 diacid])
notes: the claim prints (2S)-2,6-bis; also called 12
EC50 (pM), in vitro potency, CRE luciferase reporter gene assay in BHK cells [1]: 62.9 pM | IC50 [2]: 51.8 nM

B13: N{Epsilon-36}-[2-[2-[2-[[2-[2-[2-[[(4S)-4-carboxy-4-[11-(4-carboxyphenoxy)undecanoylamino]butanoyl]amino]ethoxy]ethoxy]acetyl]amino]ethoxy]ethoxy]acetyl],N{Epsi … (peptide)
peptide: HWEGTFTSDVSSYLEEQAAREFIAWLVRGK([AEEA-AEEA-γGlu-Undecanoyl(11-OPh(4-COOH))])K([AEEA-AEEA-γGlu-Undecanoyl(11-OPh(4-COOH))])
IC50 [3]: 0.535 nM

B14: N{Epsilon-26}-[(4S)-4-carboxy-4-(hexadecanoylamino)butanoyl]-[Trp8,Arg34]-GLP-1-(7-37)-peptide (peptide)
peptide: HWEGTFTSDVSSYLEGQAAK([γGlu-Palmitoyl])EFIAWLVRGRG
EC50 (pM), in vitro potency, CRE luciferase reporter gene assay in BHK cells [1]: 21 pM

B15: N{Epsilon-36}-[2-[2-[2-[[2-[2-[2-[[(4S)-4-carboxy-4-[10-(3-carboxyphenoxy)decanoylamino]butanoyl]amino]ethoxy]ethoxy]acetyl]amino]ethoxy]ethoxy]acetyl],N{Epsilo … (peptide)
peptide: HWEGTFTSDVSSYLEEQAAREFIAWLVRGK([AEEA-AEEA-γGlu-Decanoyl(10-O(3-COOH-Ph))])K([AEEA-AEEA-γGlu-Decanoyl(10-O(3-COOH-Ph))])
IC50 [3]: 0.405 nM

B16: N{Epsilon-37}-[(2S)-2,6-bis[[2-[2-[2-[[2-[2-[2-[[2-[2-[2-[[2-[2-[2-[[2-[2-[2-[[2-[2-[2-[[(4S)-4-carboxy-4-[[4-[(19-carboxynonadecanoylamino)methyl]cyclohexaneca … (peptide)
peptide: HWEGTFTSDVSSYLEEQAAREFIAWLVRGRK([Lys-AEEA-AEEA-AEEA-AEEA-AEEA-AEEA-γGlu-4‑(aminomethyl)cyclohexanecarbonyl-C20 diacid)+(AEEA-AEEA-AEEA-AEEA-AEEA-AEEA-γGlu-4‑(aminomethyl)cyclohexanecarbonyl-C20 diacid])
notes: also called 10
EC50 (pM), in vitro potency, CRE luciferase reporter gene assay in BHK cells [1]: 31.2 pM | IC50 [2]: 123 nM
